Measured values as given in patent US20220185898A1 (Alector, published 2022).
Changes are numbered by the printed parent chain.

B1: S-51 (antibody, V domains shown)
VH: QVQLVESGGGVVQPGRSLRLSCAASGFTFSSYGMHWVRQAPGKGLEWVAVISYDGSNKYYADSVKGRFTISRDNSKNTLYLQMNSLRAEDTAVYYCAKGLEYYDSSRLYYPYYYYMDVWGKGTTVTVSS
VL: EIVLTQSPATLSLSPGERATLSCRASQSVSSYLAWYQQKPGQAPRLLIYDASKRATGIPARFSGSGSGTDFTLTISSLEPEDFAVYYCQQRSNYPITFGGGTKVEIK
notes: IgG
B2: S-55 (antibody, V domains shown)
VH: QVQLQESGPGLVKPSETLSLTCAVSGYSISSGYYWGWIRQPPGKGLEWIGSIYHSGSTYYNPSLKSRVTISVDTSKNQFSLKLSSVTAADTAVYYCARGRPELGWDKYFQHWGQGTLVTVSS
VL: DIQMTQSPSSVSASVGDRVTITCRASQGISRWLAWYQQKPGKAPKLLIYAASSLQSGVPSRFSGSGSGTDFTLTISSLQPEDFATYYCQQANALPTFGGGTKVEIK
notes: IgG
B3: S-58 (antibody, V domains shown)
VH: QVQLQESGPGLVKPSETLSLTCAVSGYSISSGYYWGWIRQPPGKGLEWIGSIYHSGNTYYNPSLKSRVTISVDTSKNQFSLKLSSVTAADTAVYYCARGPPELGKMYFQHWGQGTLVTVSS
VL: EIVLTQSPATLSVSPGERATLSCRASQSVSSNLAWYQQKPGQAPRLLIYGASTRATGIPARFSGSGSGTEFTLTISSLQSEDFAVYYCQQDRKGPLTFGGGTKVEIK
notes: IgG
B4: S-61 (antibody, V domains shown)
VH: QVQLQESGPGLVKPSETLSLTCAVSGYSISSGYYWGWIRQPPGKGLEWIGSIYHSGSTYYNPSLKSRVTISVDTSKNQFSLKLSSVTAADTAVYYCARGSPRFYYGSGSYLDLFDIWGQGTMVTVSS
VL: B3 VL with L4M, Q90E, D91Y, R92L, K93N, G94Y, L96I
notes: IgG
B5: S-64 (antibody, V domains shown)
VH: QVQLQESGPGLVKPSETLSLTCAVSGYSISSGYYWGWIRQPPGKGLEWIGSIYHSGSTYYNPSLKSRVTISVDTSKNQFSLKLSSVTAADTAVYYCARAEHRGPRYFDLWGRGTLVTVSS
VL: DIQMTQSPSSLSASVGDRVTITCRASQSINSYLNWYQQKPGKAPKLLIYAASSLQSGVPSRFSGSGSGTDFTLTISSLQPEDFATYYCQQLDSTPITFGGGTKVEIK
notes: IgG
B6: S-65 (antibody, V domains shown)
VH: B5 VH with A99E, E100G, H101Q, R102L, G103P, P104T, R105G, Y106T, L109Y, R112Q
VL: not shown
notes: IgG
B7: S-69 (antibody, V domains shown)
VH: QVQLQESGPGLVKPSQTLSLTCTVSGGSISSGGYYWSWIRQHPGKGLEWIGYIYYSGSTYYNPSLKSRVTISVDTSKNQFSLKLSSVTAADTAVYYCARDRGGTHFGADHYYYGMDVWGQGTMVTVSS
VL: B3 VL with L4M, N32S, D91A, R92A, K93D, G94W, L96I
notes: IgG
B8: S-73 (antibody, V domains shown)
VH: QVQLQESGPGLVKPSQTLSLTCTVSGGSISSGTYYWSWIRQHPGKGLEWIGYIYYSGSTYYNPSLKSRVTISVDTSKNQFSLKLSSVTAADTAVYYCARGVGRYRVADYWGQGTLVTVSS
VL: EIVLTQSPATLSLSPGERATLSCRASQSVSSYLAWYQQKPGQAPRLLIYDASNRATGIPARFSGSGSGTDFTLTISSLEPEDFAVYYCQQASVYPPITFGGGTKVEIK
notes: IgG
B9: S-76 (antibody, V domains shown)
VH: QVQLQESGPGLVKPSQTLSLTCTVSGGSISSGGYYWSWIRQHPGKGLEWIGSIYYSGSTYYNPSLKSRVTISVDTSKNQFSLKLSSVTAADTAVYYCARGVGIQQQLVLGFDPWGQGTLVTVSS
VL: B5 VL with N30S, Y32F, Y49S, L91S, D92Y, S93R, T94E
notes: IgG
B10: S-78 (antibody, V domains shown)
VH: QLQLQESGPGLVKPSETLSLTCTVSGGSISSSDYYWGWIRQPPGKGLEWIGSIYYSGSTYYNPSLKSRVTISVDTSKNQFSLKLSSVTAADTAVYYCARSLAMSGAYFDLWGRGTLVTVSS
VL: not shown
notes: IgG
B11: S-9 (antibody, V domains shown)
VH: QVQLVQSGAEVKKPGASVKVSCKASGYTFTSYGISWVRQAPGQGLEWMGWISAYNGNTNYAQKLQGRVTMTTDTSTSTAYMELRSLRSDDTAVYYCARDPGGYGPTLYYYYGMDVWGQGTTVTVSS
VL: B3 VL with L4M, D91Y, R92N, K93I, G94Y
notes: IgG
B12: S-4 (antibody, V domains shown)
VH: not shown
VL: B3 VL with L4M, D91F, K93V, G94L, L96P
notes: IgG
B13: S-10 (antibody, V domains shown)
VH: B11 VH
VL: EIVMTQSPATLSVSPGERATLSCRASQSVSSNLAWYQQKPGQAPRLLIYGASTRATGIPARFSGSGSGTEFTLTISSLQSEDFAVYYCQQYADWPPITFGGGTKVEIK
notes: IgG
B14: S-74 (antibody, V domains shown)
VH: B8 VH
VL: B8 VL with L4M, A51S, A91E, S92T, V93N, Y94M
notes: IgG
B15: S-81 (antibody, V domains shown)
VH: QLQLQESGPGLVKPSETLSLTCTVSGGSISSSSYYWGWIRQPPGKGLEWIGSIYYSGSTYYNPSLKSRVTISVDTSKNQFSLKLSSVTAADTAVYYCARERWDLGHGMDVWGQGTTVTVSS
VL: not shown
notes: IgG
B16: S-83 (antibody, V domains shown)
VH: QLQLQESGPGLVKPSETLSLTCTVSGGSISSSSYYWGWIRQPPGKGLEWIGSIYYSGSTYYNPSLKSRVTISVDTSKNQFSLKLSSVTAADTAVYYCARGSPTWLRDYYMDVWGKGTTVTVSS
VL: B3 VL with D91Y, R92N, K93A, G94F, L96P
notes: IgG
B17: S-84 (antibody, V domains shown)
VH: QLQLQESGPGLVKPSETLSLTCTVSGGSISSSSYYWGWIRQPPGKGLEWIGSISYSGSTYYNPSLKSRVTISVDTSKNQFSLKLSSVTAADTAVYYCARGGTTWLVADVWGQGTMVTVSS
VL: not shown
notes: IgG
B18: S-12 (antibody, V domains shown)
VH: QVQLVQSGAEVKKPGASVKVSCKASGYTFTSYGISWVRQAPGQGLEWMGWISAYNGNTNYAQKLQGRVTMTTDTSTSTAYMELRSLRSDDTAVYYCARDLPKYKWGWFDPWGQGTLVTVSS
VL: not shown
notes: IgG
B19: S-16 (antibody, V domains shown)
VH: QVQLVQSGAEVKKPGSSVKVSCKASGGTFSSYAISWVRQAPGQGLEWMGGIIPIFGTANYAQKFQGRVTITADESTSTAYMELSSLRSEDTAVYYCARSPYSGTRDFDLWGRGTLVTVSS
VL: B5 VL with L11V, S28G, N30S, Y32W, N34A, S53N, L91G, D92N, T94Y
notes: IgG
B20: S-26 (antibody, V domains shown)
VH: EVQLVESGGGLVKPGGSLRLSCAASGFTFSSYSMNWVRQAPGKGLEWVSSISSSSSYIYYADSVKGRFTISRDNAKNSLYLQMNSLRAEDTAVYYCARDRLGRGYKWNWFDPWGQGTLVTVSS
VL: DIQMTQSPSSVSASVGDRVTITCRASQGIDSWLAWYQQKPGKAPKLLIYAASSLQSGVPSRFSGSGSGTDFTLTISSLQPEDFATYYCQQGNSLPPITFGGGTKVEIK
notes: IgG
B21: S-40 (antibody, V domains shown)
VH: not shown
VL: B1 VL with L4M, K53N, N93A, Y94L, I96F
notes: IgG
B22: S-6 (antibody, V domains shown)
VH: not shown
VL: B3 VL with L4M, D91V, R92A, K93N, G94Y, L96R
notes: IgG; also called S-06

Molecular target: T1, mouse Sortilin Fc fusion protein (mouse; human, UniProt Q6PHU5 74-754)
T1 construct: whole entry named; also called mSort-Fc
Experiment: ForteBio, avid;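 also: whole IgG captured on AHQ sensors, then contacted with Sortilin Fc fusion antigen at 100 nM, followed by an off-rate phase in buffer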
Method: (§1) The affinity for the Sortilin antibodies was determined by measuring their KD by ForteBio. […] Briefly, ForteBio affinity measurements were performed by loading IgGs on-line onto AHQ sensors. Sensors were equilibrated off-line in assay buffer for 30 min and then monitored on-line for 60 seconds for baseline establishment. For avid binding measurement, sensors with loaded IgGs were exposed to 100 nM antigen (human or mouse Sortilin Fc fusion) for 3, afterwards they were transferred to assay buffer for 3 min for off-rate measurement.
(§2) The binding affinity of each anti-Sortilin antibody was determined by measuring their KD by ForteBio or MSD-SET at room temperature. […] Briefly, ForteBio affinity measurements were performed by loading IgGs on-line onto AHQ sensors. Sensors were equilibrated off-line in assay buffer for 30 min and then monitored on-line for 60 seconds for baseline establishment. Sensors with loaded IgGs were exposed to 100 nM antigen for 5 minutes, then transferred to assay buffer for 5 min for off-rate measurement. Kinetics were analyzed using the 1:1 binding model.

Point of comparison: B1, Kd 1.21 nM. Against it:
- B2 — within 1.5-fold, 1.13 nM
- B3 — 1.5-fold lower, 0.8 nM
- B4 — 2-fold higher, 2.45 nM
- B5 — 20-fold higher, 24.2 nM
- B6 — 5.7-fold higher, 6.9 nM
- B7 — 17-fold higher, 20.1 nM
- B8 — 16-fold higher, 19.7 nM
- B9 — 16-fold higher, 19 nM
- B10 — 8.8-fold higher, 10.6 nM
- B11 — 1.8-fold higher, 2.16 nM
- B12 — within 1.5-fold, 1.55 nM
- B13 — 1.9-fold higher, 2.29 nM

Molecular target: T2, human Sortilin Fc fusion protein (human, UniProt Q99523 78-755)
T2 construct: whole entry named; also called hSort-Fc
Experiment: ForteBio, avid;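 also: whole IgG captured on AHQ sensors, then contacted with Sortilin Fc fusion antigen at 100 nM, followed by an off-rate phase in buffer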
Method: as §1, §2

Point of comparison: B11, Kd 6.98 nM. Against it:
- B1 — 1.7-fold lower, 4.12 nM
- B2 — 3.1-fold lower, 2.28 nM
- B3 — 2.7-fold lower, 2.59 nM
- B4 — 1.6-fold lower, 4.26 nM
- B7 — 1.6-fold lower, 4.29 nM
- B8 — 2.1-fold lower, 3.33 nM
- B14 — 2.3-fold lower, 3.05 nM
- B10 — 2-fold lower, 3.51 nM
- B15 — 3.2-fold lower, 2.2 nM
- B16 — 3.9-fold lower, 1.79 nM
- B17 — 1.6-fold lower, 4.4 nM
- B12 — 1.6-fold lower, 4.5 nM
- B13 — 1.6-fold higher, 11 nM
- B18 — within 1.5-fold, 9.35 nM
- B19 — 1.8-fold lower, 3.8 nM
- B20 — 2.4-fold lower, 2.88 nM
- B21 — 2.9-fold lower, 2.43 nM

Molecular target: T3, mouse Sortilin expressed on 293 / HEK293T cells (mouse, UniProt Q6PHU5 74-825)
T3 construct: full-length recombinant mouse Sortilin; also called mSort; msSort
Experiment: FACS, 293 cells;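 also: antibodies at 10 µg/ml bound to cells for 1 h on ice, detected with PE-labelled anti-human secondary antibody by flow cytometry, reported as mean fluorescence intensity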
Method: (§3) Cells were harvested, plated at 10⁵/ml in a 96 well plate, washed, and incubated in 100 μl PBS containing 10 μg/ml Mab and 2% FBS for 1 hour in ice. Cells were then washed twice and incubated in 100 μl PBS+2% FBS containing 5 μg/ml PE-conjugated anti-human secondary antibody for 30 minutes in ice. Cells were washed twice in cold PBS and data was acquired on a BD FACS Canto. Data analysis and calculation of MFI values was performed with FlowJo (TreeStar) software version 10.0.7.

Point of comparison: B22, MFI 25600. Against it:
- B1 — lower, 21900
- B2 — lower, 21400
- B3 — lower, 15100
- B4 — lower, 21800
- B6 — lower, 17900
- B7 — lower, 1890
- B8 — lower, 7670
- B14 — lower, 7300
- B9 — lower, 4180
- B10 — lower, 7930
- B15 — lower, 16600
- B17 — lower, 15400
- B11 — lower, 22200
- B12 — lower, 15700
- B13 — lower, 19400
- B18 — lower, 18800
- B20 — lower, 20900
- B21 — lower, 2630

Molecular target: T4, human Sortilin expressed on 293 / HEK293T cells (human, UniProt Q99523 78-830)
T4 construct: full-length recombinant human Sortilin; also called hSort; SORT1
Experiment: FACS, 293 cells;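 also: antibodies at 10 µg/ml bound to cells for 1 h on ice, detected with PE-labelled anti-human secondary antibody by flow cytometry, reported as mean fluorescence intensity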
Method: as §3

Point of comparison: B10, MFI 7120. Against it:
- B1 — higher, 12200
- B2 — higher, 9480
- B22 — higher, 11100
- B3 — higher, 7770
- B4 — higher, 7480
- B5 — higher, 7930
- B6 — higher, 8070
- B7 — higher, 8580
- B8 — higher, 8070
- B14 — higher, 9210
- B9 — higher, 9680
- B15 — higher, 8940
- B16 — higher, 9300
- B17 — higher, 9240
- B11 — higher, 10300
- B12 — higher, 9120
- B13 — higher, 8660
- B18 — higher, 9760
- B19 — lower, 6280
- B20 — higher, 9020
- B21 — higher, 7410
